From patent publication US20230312723A1, “METHODS AND COMPOSITIONS FOR NON-SMALL CELL LUNG CANCER IMMUNOTHERAPY” (Genentech, Inc., priority 2020, published 2023)

System: patients with Stage IV NSCLC
Test: Phase III study: safety, adverse events graded according to NCI CTCAE v4.0
[1] = All treated patients, Chemo N = 263, Atezo N = 286
[2] = All treated patients, Chemo N = 263, Atezo N = 286, listed as atezolizumab

atezolizumab
AE leading to any treatment withdrawal, % of patients [1]: (6.3%)
AE leading to any treatment withdrawal, number of patients [1]: 18
All Deaths, % of patients [1]: 43.7%
All Deaths, number of patients [1]: 125
All Grade AE, any cause, % of patients [1]: (90.2%)
All Grade AE, any cause, number of patients [1]: 258
Cause of death: Adverse Event, % of patients [1]: 3.8%
Cause of death: Adverse Event, number of patients [1]: 11
Cause of death: Other, including deaths collected by public records, % of patients [1]: 3.8%
Cause of death: Other, including deaths collected by public records, number of patients [1]: 11
Cause of death: Progressive disease, % of patients [1]: 36.0%
Cause of death: Progressive disease, number of patients [1]: 103
Grade 3-4 AE, % of patients [1]: (31.8%)
Grade 3-4 AE, number of patients [1]: 91
Grade 5 AE, % of patients [1]: (3.8%)
Grade 5 AE, number of patients [1]: 11
Related AE (TRAE), % of patients [1]: (60.5%)
Related AE, number of patients [1]: 173
Serious Adverse Event, % of patients [1]: (28.3%)
Serious Adverse Event, number of patients [1]: 81
Treatment-Related SAE, % of patients [1]: (8.4%)
Treatment-Related SAE, number of patients [1]: 24
Treatment-related Grade 3-4 AE, % of patients [1]: (12.9%)
Treatment-related Grade 3-4 AE, number of patients [1]: 37
Treatment-related Grade 5 AE, number of patients [1]: 0
Related AE (TRAE), % of patients [2]: 60.5%
Treatment-related Grade 3-4 AE, % of patients [2]: 12.9%
Treatment-related AE Anemia, All Grades, % (Atezo n = 286, Chemo n = 263): (3.5) %
Treatment-related AE Asthenia, All Grades, % (Atezo n = 286, Chemo n = 263): (7.3) %
Treatment-related AE Asthenia, Grade 3-4, % (Atezo n = 286, Chemo n = 263): 0.3%
Treatment-related AE Constipation, All Grades, % (Atezo n = 286, Chemo n = 263): (3.5) %
Treatment-related AE Constipation, Grade 3-4, % (Atezo n = 286, Chemo n = 263): 0.3%
Treatment-related AE Decreased appetite, All Grades, % (Atezo n = 286, Chemo n = 263): (7.0) %
Treatment-related AE Decreased appetite, Grade 3-4, % (Atezo n = 286, Chemo n = 263): 0.7%
Treatment-related AE Decreased white blood cell count, All Grades, % (Atezo n = 286, Chemo n = 263): (1.0) %
Treatment-related AE Fatigue, All Grades, % (Atezo n = 286, Chemo n = 263): (7.7) %
Treatment-related AE Fatigue, Grade 3-4, % (Atezo n = 286, Chemo n = 263): 0.7%
Treatment-related AE Hyperkalemia, All Grades, % (Atezo n = 286, Chemo n = 263): (2.1) %
Treatment-related AE Hyperkalemia, Grade 3-4, % (Atezo n = 286, Chemo n = 263): 1.0%
Treatment-related AE Hyponatremia, All Grades, % (Atezo n = 286, Chemo n = 263): (1.7) %
Treatment-related AE Hyponatremia, Grade 3-4, % (Atezo n = 286, Chemo n = 263): 1.0%
Treatment-related AE Leukopenia, All Grades, % (Atezo n = 286, Chemo n = 263): (1.0) %
Treatment-related AE Leukopenia, Grade 3-4, % (Atezo n = 286, Chemo n = 263): 0.3%
Treatment-related AE Nausea, All Grades, % (Atezo n = 286, Chemo n = 263): (7.0) %
Treatment-related AE Nausea, Grade 3-4, % (Atezo n = 286, Chemo n = 263): 0.3%
Treatment-related AE Neutropenia, All Grades, % (Atezo n = 286, Chemo n = 263): (1.0) %
Treatment-related AE Neutropenia, Grade 3-4, % (Atezo n = 286, Chemo n = 263): 0.7%
Treatment-related AE Pancytopenia, All Grades, % (Atezo n = 286, Chemo n = 263): (0.3) %
Treatment-related AE Pancytopenia, Grade 3-4, % (Atezo n = 286, Chemo n = 263): 0.3%
Treatment-related AE Thrombocytopenia, All Grades, % (Atezo n = 286, Chemo n = 263): (1.7) %
Treatment-related AE Thrombocytopenia, Grade 3-4, % (Atezo n = 286, Chemo n = 263): 0.3%
Treatment-related AE Vomiting, All Grades, % (Atezo n = 286, Chemo n = 263): (1.4) %
Treatment-related AE Vomiting, Grade 3-4, % (Atezo n = 286, Chemo n = 263): 0.3%
Grade 5 AE: Acute myocardial infarction, % (Chemo N = 263, Atezo N = 286): 0.3%
Grade 5 AE: Aspiration, % (Chemo N = 263, Atezo N = 286): 0.3%
Grade 5 AE: COPD, % (Chemo N = 263, Atezo N = 286): 0.3%
Grade 5 AE: Cardiac arrest, % (Chemo N = 263, Atezo N = 286): 0.3%
Grade 5 AE: Cardiac disorders, % (Chemo N = 263, Atezo N = 286): 0.7%
Grade 5 AE: Cerebral infarction, % (Chemo N = 263, Atezo N = 286): 0.3%
Grade 5 AE: Death, % (Chemo N = 263, Atezo N = 286): 0.7%
Grade 5 AE: Gastrointestinal disorders, % (Chemo N = 263, Atezo N = 286): 0.3%
Grade 5 AE: General disorders and administration site conditions, % (Chemo N = 263, Atezo N = 286): 0.7%
Grade 5 AE: Infections and infestations, % (Chemo N = 263, Atezo N = 286): 0.3%
Grade 5 AE: Mechanical ileus, % (Chemo N = 263, Atezo N = 286): 0.3%
Grade 5 AE: Nervous system disorders, % (Chemo N = 263, Atezo N = 286): 0.3%
Grade 5 AE: Product issues, Device occlusion, % (Chemo N = 263, Atezo N = 286): 0.3%
Grade 5 AE: Pulmonary embolism, % (Chemo N = 263, Atezo N = 286): 0.3%
Grade 5 AE: Respiratory, thoracic and mediastinal disorders, % (Chemo N = 263, Atezo N = 286): 1.0%
Grade 5 AE: Sepsis, % (Chemo N = 263, Atezo N = 286): 0.3%
Grade 5 AE: Total number of patients (Chemo N = 263, Atezo N = 286): 11
